# Data from patent publication US20120213781A1.
# Bridges are numbered along the chain shown (N, C = ends). Where no end group is shown, it is not given here.
# Target: recombinant human angiopoietin-2 (rhAng2) (human) (UniProt O15123)
# Test: direct ELISA on rhAng2-coated wells, detection by HRP-anti-His tag antibody, OD450
# UniProt O15123, sequence (O15123 19-496 limits assumed): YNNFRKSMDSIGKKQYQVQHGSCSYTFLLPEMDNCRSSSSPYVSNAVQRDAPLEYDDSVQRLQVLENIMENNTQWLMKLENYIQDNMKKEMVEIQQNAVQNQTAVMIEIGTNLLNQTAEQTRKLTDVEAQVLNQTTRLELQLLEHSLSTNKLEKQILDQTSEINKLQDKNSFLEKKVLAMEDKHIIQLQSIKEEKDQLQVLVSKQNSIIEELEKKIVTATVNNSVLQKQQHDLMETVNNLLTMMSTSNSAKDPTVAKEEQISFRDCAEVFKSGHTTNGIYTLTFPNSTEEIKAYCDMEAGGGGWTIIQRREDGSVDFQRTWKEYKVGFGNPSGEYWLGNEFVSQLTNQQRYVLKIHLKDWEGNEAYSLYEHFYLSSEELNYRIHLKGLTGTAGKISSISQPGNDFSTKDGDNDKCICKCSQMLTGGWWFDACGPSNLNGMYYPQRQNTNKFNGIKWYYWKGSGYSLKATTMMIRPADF
row,Binder,EC50 (read off the curve) [nM]
1,"LWDDCYSFPNPPHCYNSP (designed binder, not shown: small tags and cut ends, disulfide 5-14 (inferred); not fully specified (N-terminus, C-terminus); also: ELP-MRD fusion, type and number of ELP repeats not given here) [Construct 13]",9
2,"LWDDCYSFPNPPHCYNSP (designed binder, not shown: small tags and cut ends, disulfide 5-14 (inferred); not fully specified (N-terminus, C-terminus); also: ELP-MRD fusion, type and number of ELP repeats not given here) [Construct 12]",9
